Reference: PMC3046773 (Life sciences, 2010)

Biological target: T1, PGIS–CFP (human, UniProt Q16647 1-500)
T1 sequence (looked up): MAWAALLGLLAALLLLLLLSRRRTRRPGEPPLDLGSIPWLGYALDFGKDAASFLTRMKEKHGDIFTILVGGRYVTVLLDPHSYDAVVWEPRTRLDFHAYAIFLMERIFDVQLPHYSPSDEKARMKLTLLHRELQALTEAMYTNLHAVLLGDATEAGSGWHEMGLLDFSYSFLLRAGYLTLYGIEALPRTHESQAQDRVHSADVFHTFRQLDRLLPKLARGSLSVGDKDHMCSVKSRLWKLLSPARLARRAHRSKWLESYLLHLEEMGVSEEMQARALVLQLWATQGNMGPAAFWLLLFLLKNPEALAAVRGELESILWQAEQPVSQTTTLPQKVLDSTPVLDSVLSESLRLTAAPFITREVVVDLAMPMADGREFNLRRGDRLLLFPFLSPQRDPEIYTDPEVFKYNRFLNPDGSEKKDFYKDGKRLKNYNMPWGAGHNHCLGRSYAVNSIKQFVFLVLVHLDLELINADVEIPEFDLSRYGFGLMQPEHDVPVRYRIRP
Assay: FRET or BRET

FRET intensity relative to COX-1-RFP with PGIS–CFP: 2 fold
B1: COX-2-RFP (enzyme, human, UniProt P35354 18-604, looked up)
chain: ANPCCSHPCQNRGVCMSVGFDQYKCDCTRTGFYGENCSTPEFLTRIKLFLKPTPNTVHYILTHFKGFWNVVNNIPFLRNAIMSYVLTSRSHLIDSPPTYNADYGYKSWEAFSNLSYYTRALPPVPDDCPTPLGVKGKKQLPDSNEIVEKLLLRRKFIPDPQGSNMMFAFFAQHFTHQFFKTDHKRGPAFTNGLGHGVDLNHIYGETLARQRKLRLFKDGKMKYQIIDGEMYPPTVKDTQAEMIYPPQVPEHLRFAVGQEVFGLVPGLMMYATIWLREHNRVCDVLKQEHPEWGDEQLFQTSRLILIGETIKIVIEDYVQHLSGYHFKLKFDPELLFNKQFQYQNRIAAEFNTLYHWHPLLPDTFQIHDQKYNYQQFIYNNSILLEHGITQFVESFTRQIAGRVAGGRNVPPAVQKVSQASIDQSRQMKYQSFNEYRKRFMLKPYESFEELTGEKEMSAELEALYGDIDAVELYPALLVEKPRPDAIFGETMVEVGAPFSLKGLMGNVICSPAYWKPSTFGGEVGFQIINTASIQSLICNNVKGCPFTSFSVPDPELIKTVTINASSSRSGLDDINPTVLLKERSTEL
